Reference: EP4345113A1 (SDS Optic Spolka Akcyjna, dated 2024)

Tests used:
[1] = molecular target: T1, recombinant HER2 ECD domain (human, UniProt P04626 23-652); experiment: Western blot
T1 construct: extracellular domain; also called extracellular domain of HER2

[2] = molecular target: T2, human epidermal growth factor receptor 2 (HER2), native, in SK-BR-3 and SK-OV-3 cells and cell lysates (human, UniProt P04626 23-1255); experiment: immunofluorescence on fixed cells
T2 construct: whole, on cells; Detected in denatured cell lysates (Western blot) and in fixed cells (immunofluorescence); also called HER2 antigen; HER2 protein

[3] = molecular target: HER2 antigen (as used in the ELISA binding assays and on the optoelectronic biosensors) (human) (UniProt P04626); experiment: in vitro antigen binding curve (ELISA), half of the effective dose
[4] = molecular target: HER2 antigen (as used in the ELISA binding assays and on the optoelectronic biosensors) (human) (UniProt P04626); experiment: direct ELISA, lot SDS-20211201 after 430 days at -80°C; amount of antibody that binds half of the available antigen
[5] = molecular target: HER2 antigen (as used in the ELISA binding assays and on the optoelectronic biosensors) (human) (UniProt P04626); experiment: direct ELISA, lot SDS-20211231 after 352 days at -80°C; amount of antibody that binds half of the available antigen
[6] = molecular target: HER2 antigen (as used in the ELISA binding assays and on the optoelectronic biosensors) (human) (UniProt P04626); experiment: direct ELISA, lot SDS-20220120 after 341 days at -80°C; amount of antibody that binds half of the available antigen
[7] = molecular target: HER2 antigen (as used in the ELISA binding assays and on the optoelectronic biosensors) (human) (UniProt P04626); experiment: direct ELISA, lot SDS-20220126 after 340 days at -80°C; amount of antibody that binds half of the available antigen

binding result [1] | binding result [2] | ED50 [3] | ED50 [4] | ED50 [5] | ED50 [6] | ED50 [7] | Binder
binds | binds | 0.235 nM | 0.0046 µg | 0.0043 µg | 0.004 µg | 0.0043 µg | mAb anti-human-HER2/70.21.73.67 - clone 67 (antibody, V domains shown, Used as a biotin complex in the sandwich ELISA; No cleavage site is stated; also called mAb anti-human-HER2/clone 67; anti-HER2/70.21.73.67) VH: EIQLQQSGPELVKPGASVRVSCKASGYSFTDYNMYWVRQSQGESLEWIGYIDHYNGNTGYNQKFRDKATLTVDKASSTAFMHLNSLTSEDSAVYYCARHYDYGAMDYWGQGTSVTVSS VL: DIVMTQSQKFMSTSVGDRVSVTCKASQNVGTNVAWYQQKPGQSPKALIYSASYRYSGVPDRFTGSGSGTDFTLTISTVQSEDLAEYFCQHYYIYPLTFGAGTKLELKR
binds | binds | 0.0922 nM |  |  |  |  | mAb anti-human-HER2/70.27.58 - clone 58 (antibody, V domains shown, also called mAb anti-human-HER2/clone 58; anti-HER2/70.27.58) VH: EVQLQQSGPELEKPGASVKISCKASGYSFTGYNMNWVKQSNGKSLEWIGTIDPNYGTSYNQKFKGKATLTVDKSSSTAYMHLKSLTSEDSSVYYCARRKVNYEAWFAFWGQGTLVTVSA VL: DIVLTQSPASLAVSLGQRATISCRASESVDSYGNSFMHWYQQKPGQPPKLLIYRASNLESGIPARFSGSGSRTDFTLTINPVEADDVATYYCQQSNEDPFTFGSGTKLEIKR
